From US20040049009A1, “Methods for improving the antagonistic/agonistic properties of peptidic antagonists/agonists of the corticotropin-releasing factor receptor (crfr)” (priority 2000, published 2004) come the findings set out here.

In experiment [1] the target is mouse CRF receptor, type 2β (mouse) (UniProt Q60748).
For experiment [2], the target named is rat CRF receptor, type 1 (rat) (UniProt P35353).
In experiment [3] the target is T1, rat CRF binding protein C-terminally fused with a His6 sequence (rat) (UniProt P24388).
T1 sequence: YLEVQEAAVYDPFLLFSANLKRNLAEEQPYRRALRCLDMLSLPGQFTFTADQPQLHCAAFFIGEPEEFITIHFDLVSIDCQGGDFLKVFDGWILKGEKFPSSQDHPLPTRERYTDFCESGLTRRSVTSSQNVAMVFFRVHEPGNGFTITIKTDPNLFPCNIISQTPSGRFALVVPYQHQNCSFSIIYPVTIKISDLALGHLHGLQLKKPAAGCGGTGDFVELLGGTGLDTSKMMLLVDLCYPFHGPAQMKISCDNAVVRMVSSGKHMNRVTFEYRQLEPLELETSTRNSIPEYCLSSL
Kind of experiment: SPA competition with 0.1 nM [125I-Tyr0]h/rCRF, His-tagged rCRFBP; 95% CI (0.9-1.0).

Experiment [4] deals with mouse CRF receptor, type 2β (mouse) (UniProt Q60748). Description: SPA competition with 0.05 nM [125I-Tyr0]Svg, HEK-293 membranes; 95% CI (0.24-1.36).
Experiment [5] concerns the target T1, rat CRF binding protein C-terminally fused with a His6 sequence (rat). Kind of experiment: SPA competition with 0.1 nM [125I-Tyr0]h/rCRF, His-tagged rCRFBP; 95% CI (76-104).
Experiment [6] has as its target mouse CRF receptor, type 2β (mouse) (UniProt Q60748). Description: SPA competition with 0.05 nM [125I-Tyr0]Svg, HEK-293 membranes; 95% CI (15-18).
In experiment [7] the target is T1, rat CRF binding protein C-terminally fused with a His6 sequence (rat). Description: SPA competition with 0.1 nM [125I-Tyr0]h/rCRF, His-tagged rCRFBP; 95% CI (70-90).
Experiment [8] concerns the target rat CRF receptor, type 1 (rat) (UniProt P35353). Description: SPA competition with 0.05 nM [125I-Tyr0]h/rCRF, HEK-293 membranes; 95% CI (0.44-0.79).
The target of experiment [9] is T1, rat CRF binding protein C-terminally fused with a His6 sequence (rat). Kind of experiment: SPA competition with 0.1 nM [125I-Tyr0]h/rCRF, His-tagged rCRFBP; 95% CI (0.60-1.3).
In experiment [10] the target is mouse CRF receptor, type 2β (mouse) (UniProt Q60748). Description: SPA competition with 0.05 nM [125I-Tyr0]Svg, HEK-293 membranes; 95% CI (110-300).
Experiment [11] has as its target rat CRF receptor, type 1 (rat) (UniProt P35353). Description: SPA competition with 0.05 nM [125I-Tyr0]h/rCRF, HEK-293 membranes; 95% CI (0.65-1.4).
Target sequence in this assay (P35353 24-415): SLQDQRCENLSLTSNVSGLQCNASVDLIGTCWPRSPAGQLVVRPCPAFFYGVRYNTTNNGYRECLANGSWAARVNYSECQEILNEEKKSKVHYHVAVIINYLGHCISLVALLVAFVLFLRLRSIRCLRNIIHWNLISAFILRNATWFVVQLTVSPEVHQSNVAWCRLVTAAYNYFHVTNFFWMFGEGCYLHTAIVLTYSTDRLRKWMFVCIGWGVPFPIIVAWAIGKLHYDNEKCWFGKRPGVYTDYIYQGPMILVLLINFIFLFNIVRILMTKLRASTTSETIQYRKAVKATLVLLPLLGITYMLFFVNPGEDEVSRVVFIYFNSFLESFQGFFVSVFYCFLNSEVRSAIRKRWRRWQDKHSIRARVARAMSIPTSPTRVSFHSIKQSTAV

Sequence of ovine corticotropin-releasing factor (ligand) (P01142 148-188): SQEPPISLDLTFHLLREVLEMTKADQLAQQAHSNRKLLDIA

What is called IC50 is the concentration needed to halve the response being measured. A lower IC50 goes with inhibition by little substance. For the substance α-helical CRF^9-41 (peptide), the Rel. intrinsic activity [%] in experiment [1] amounted to 1.4%; in experiment [2] it was 19%. Also, the Rel. potency of antagonist [%] in experiment [1] amounted to 97%; in experiment [2] it was 14%. In experiment [3], this substance returned a half-inhibitory concentration (IC50) of 1 nM.

For the substance anti-sauvagine-30 (peptide), the Rel. intrinsic activity [%] in experiment [1] worked out at 1%; in experiment [2], 6.5%. Further, the Rel. potency of antagonist [%] in experiment [1] was determined as 99%; in experiment [2], 2%. Moreover, in experiment [4], the IC50 came to 0.3 nM.

For [Glu^11,16]Ast (peptide), in [1], the Rel. intrinsic activity [%] was found to be 1% and the Rel. potency of antagonist [%] amounted to 97%.

In experiment [1], astressin (peptide) yielded a Rel. intrinsic activity [%] of 1.1% and a Rel. potency of antagonist [%] of 99%. In experiment [2], the Rel. intrinsic activity [%] is 9.8% and the Rel. potency of antagonist [%] was found to be 86%. Also, in [5], the 50% inhibitory concentration (IC50) turned out to be 90 nM.

As to “[Glu^22]h/rCRF (from UniProt P06850) (peptide)”, the values for the IC50 in experiment [6], in experiment [7] and in experiment [8] were 16 nM, 80 nM and 0.61 nM, respectively.

In the case of “[Ala^21]Svg (from UniProt P01144) (peptide)”, the half-maximal inhibitory concentration (IC50) in [9] stood at 0.94 nM.

On to “ovine corticotropin-releasing factor (ligand)”, for which the values for the IC50 in experiment [10] and in experiment [11] were 200 nM and 1 nM, respectively.
